The target of test [1] is human proprotein convertase subtilisin/kexin type 9 (PCSK9) (human) (UniProt Q8NBP7). The test is described as follows: BLI.
In test [2] the target is HIT01-K21Q-R218E (cleavage-resistant variant of HIT01) (Pangasianodon hypophthalmus (iridescent shark) scaffold with human PCSK9 stretches). Description: BLI. In general terms: BLI is a label-free optical method that tracks binding on a fibre tip over time.

On to Alirocumab, for which the Kd (in general, the constant that tells how readily two partners part at equilibrium) worked out at 1.71 nM in test [1] and 2.78 nM in test [2].

(Values after article PMC11305080.)
